From the supplement of paper PMC10567573

Experiment: protein stability index of a GFP-peptide fusion (GPS, HEK-293T) (PSI 1-6); higher = more stable
Settings: parent: NP_006221.1; c terminus: native
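Note: lentivirally expressed fusion library, cells FACS-sorted into six equal-sized GFP/DsRed ratio bins, PSI computed from sequencing read fractions per bin weighted by bin number.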

B1: POLD2 addRQ (peptide)
chain: CQPISFSGFGAEDDDLGGLGLGPRQ
protein stability index: 4.81
